B1: LINE1-mini (parent)
chain: GGCAGAGCUCAACACAGCGUGGCAAAGUGGCUGUGGCUAGACUGCC

Variants of: B1
Test: self-cleavage, relative activity (ratio to wild type); higher = more cleavage; in vitro, sequencing; the parent is a self-cleaving ribozyme
For GGCUGAGCUCAACACAGCGUGGCAAAGUGGGUGUGGCUAGACUGCC [A4U C31G], the self-cleavage was 0.05.
GGCAGAGCUCAACACAGCCUGGCAAAGUGGCUGUGGCUAGCCUGCC [G19C A41C] showed a self-cleavage of 0.05.
Work on GGCAGAGCUCGACACAGCGUGGCGAAGUGGCUGUGGCUAGACUGCC [A11G A24G] yielded a self-cleavage of 0.02.
Variant GGCAGAGUUGAACACAGCGUGGCAAAGUGGCUGUGGCUAGACUGCC [C8U C10G] has a self-cleavage of 0.02.
For GGCAGAGCUCAAUACAGCGUGGCAAAGUGGCUGUGUCUAGACUGCC [C13U G36U], the self-cleavage was 0.15.
For GGCAGAGAUCAACACAGCGUGGCAAAGUGGCUGUGGCUCGACUGCC [C8A A39C], the self-cleavage was 0.32.
GGCAGAGCUCAACACAGCGUGGCAAAGGGGCUGUGGCUAGACUGCU [U28G C46U] gave a self-cleavage of 0.36.
GGCAGAGCUCAACACAGCGUGGCAAAGUCGCUGUGGCUUGACUGCC [G29C A39U] showed a self-cleavage of 0.15.
For GGCAGAGCUCUACACAGCGUGGCAAAGUGGCUGUGGCUGGACUGCC [A11U A39G], the self-cleavage was 0.06.
For GGCAGAGCUCAACACAGCGUGGCAAAGUGGCUGUCGCUAGUCUGCC [G35C A41U], the self-cleavage was 0.13.
In the case of GGCUGAGCUCAACACAGCGUUGCAAAGUGGCUGUGGCUAGACUGCC [A4U G21U], the self-cleavage is reported as 0.35.
Variant GGCAGAGGUCAACACAGCGUGGCAAAGUGGCUGUCGCUAGACUGCC [C8G G35C] has a self-cleavage of 0.06.
For GGCAGAGCUCAACACAGCGUGGAGAAGUGGCUGUGGCUAGACUGCC [C23A A24G], the self-cleavage was 0.53.
In the case of GGCAGAGCUCAACACAGCGUGGCAAGGUGGCUGUGACUAGACUGCC [A26G G36A], the self-cleavage is reported as 0.28.
Variant GACAGAGCUCAACACAGCGUGGCAAAGUGGCUGUGCCUAGACUGCC [G2A G36C] has a self-cleavage of 0.28.
In the case of GGCAGAGCUCAACACAGCGUGGCCAAGUGGCUGUGGCUAGAGUGCC [A24C C42G], the self-cleavage is reported as 0.05.
With GGCCGAGCUCAACACAACGUGGCAAAGUGGCUGUGGCUAGACUGCC [A4C G17A] the self-cleavage was 0.08.
In the case of GGCAGAGCUCUACACAGCGUGGCAAAGUGGCUGUGGCUAGACUGGC [A11U C45G], the self-cleavage is reported as 0.04.
GGCAGAGCUCAACACAGCCUUGCAAAGUGGCUGUGGCUAGACUGCC [G19C G21U] showed a self-cleavage of 0.47.
Variant GGCAGAGCUCAACACAGCGUGGCAAAGUGGCUGUGGCUAGAUAGCC [C42U U43A] has a self-cleavage of 0.12.
Variant GGCAGAGCUCAGCACAUCGUGGCAAAGUGGCUGUGGCUAGACUGCC [A12G G17U] has a self-cleavage of 0.05.
For GGCAGAGCUCAACACCGCGUGGCAAAGUGGCUGUGGCAAGACUGCC [A16C U38A], the self-cleavage was 0.13.
For GGCAGAGCUCAGCACAGCGAGGCAAAGUGGCUGUGGCUAGACUGCC [A12G U20A], the self-cleavage was 0.04.
GGUAGAGCUCAACACAGCGUGGCAAAGUGGCUGUUGCUAGACUGCC [C3U G35U] showed a self-cleavage of 0.18.
In the case of GGCAGAGCUCAACACAGCGUGGCGAAGUGGCUGUGGUUAGACUGCC [A24G C37U], the self-cleavage is reported as 0.05.
Variant CGCCGAGCUCAACACAGCGUGGCAAAGUGGCUGUGGCUAGACUGCC [G1C A4C] has a self-cleavage of 0.12.
GGCAGAGCUCAACACAGCGUGGCAAAGUGGCUCUGGCUUGACUGCC [G33C A39U] showed a self-cleavage of 0.05.
GGCAGAGCUCAACACAGCGUGGCACAGUGGCUGGGGCUAGACUGCC [A25C U34G] showed a self-cleavage of 0.06.
For GGCAGAGCUCAAAACAGCGUGGCAAAGUGGCUGUAGCUAGACUGCC [C13A G35A], the self-cleavage was 0.15.
With GGCAGAGCUCUACACAGCGUGGCAAAGUGGCUGUGGAUAGACUGCC [A11U C37A] the self-cleavage was 0.02.
For GGCAGAGCUCAACACAGCGUGGCAAAGUUGCUGUGGCUAGACCGCC [G29U U43C], the self-cleavage was 0.08.
UGCAGAGCUCAACACAGCGUCGCAAAGUGGCUGUGGCUAGACUGCC [G1U G21C] gave a self-cleavage of 0.39.
GGGAGAGCUAAACACAGCGUGGCAAAGUGGCUGUGGCUAGACUGCC [C3G C10A] showed a self-cleavage of 0.05.
Work on GGGAGAGCUGAACACAGCGUGGCAAAGUGGCUGUGGCUAGACUGCC [C3G C10G] yielded a self-cleavage of 0.04.
Variant GGCAGAGCUCAACACAGCGUGGCUAAGUGGCUGUGGCUAGACUUCC [A24U G44U] has a self-cleavage of 0.19.
GGCAGAGCUUAACACAGCGGGGCAAAGUGGCUGUGGCUAGACUGCC [C10U U20G] showed a self-cleavage of 0.18.
GGCAGAGCUCAACACAGCGUGGCAAAGUGGCUGUGGCUUGUCUGCC [A39U A41U] gave a self-cleavage of 0.67.
In the case of GGCAUAGCUCAACACAGCGUGGCAAAGUGGCUGUGACUAGACUGCC [G5U G36A], the self-cleavage is reported as 0.33.
With GGCAGAGCUCAACACAGCGUGGCAAAGUGGCUGUAGCUAGACUGAC [G35A C45A] the self-cleavage was 0.13.
Work on GGCAGAGCUCAACACAGCCUGGCAAAGUGGCUGUCGCUAGACUGCC [G19C G35C] yielded a self-cleavage of 0.17.
In the case of GUCAGAGCUCAAGACAGCGUGGCAAAGUGGCUGUGGCUAGACUGCC [G2U C13G], the self-cleavage is reported as 0.02.
In the case of GGCAGAGCUCAACACAGCAUGGCAAAGUGGCUGUGGCUCGACUGCC [G19A A39C], the self-cleavage is reported as 0.75.
GGCAGAGCUCAACACAGCGUGGCAAAGUGGCGGGGGCUAGACUGCC [U32G U34G] showed a self-cleavage of 0.03.
GGCAGGGCUCAACACAGCGCGGCAAAGUGGCUGUGGCUAGACUGCC [A6G U20C] showed a self-cleavage of 0.1.
In the case of GGCAGAGUUCAACACAGCGUGGCAAAGUGGCUGUGGCUAGAUUGCC [C8U C42U], the self-cleavage is reported as 0.17.
GGCAGAGCUCAACACAGCGUGGCAAAGAGGCUGUGGCUAGACUGAC [U28A C45A] gave a self-cleavage of 0.29.
AGCAGAGCUCAACACAGCGUGGCAAAGUGGCUGUGGCUAGACUUCC [G1A G44U] gave a self-cleavage of 0.91.
Variant GGCAGAGCUCAACACAGCGUCGCAAAGUGGCUAUGGCUAGACUGCC [G21C G33A] has a self-cleavage of 0.8.
Work on GGCAGAGCUCAACCCAGCGUGGCAAAGUGGCUGUGGCUAGACUACC [A14C G44A] yielded a self-cleavage of 0.07.
With GGCAGAGCUAAACACAGCGUGGCAAAGUGGCUGUGGCUAGAUUGCC [C10A C42U] the self-cleavage was 0.03.
GGCGGAGCUAAACACAGCGUGGCAAAGUGGCUGUGGCUAGACUGCC [A4G C10A] gave a self-cleavage of 0.06.
GGCAGAGCUCAACACAGCGUGGCAAAGUGGCUGUCGCUAGACUGCC [G35C] showed a self-cleavage of 0.11.
Variant GGCAGAGCUCAACACAGCGUGGCAAAGCGGCUUUGGCUAGACUGCC [U28C G33U] has a self-cleavage of 0.08.
For GGCAGAUCUCAACACAGCGUGGCAAAGUGGCUGUGGCUAGACUGCA [G7U C46A], the self-cleavage was 0.19.
Variant GGCAGAGCUCAACACAGCGUGGCAAGGUGGCUGUGGCUACACUGCC [A26G G40C] has a self-cleavage of 0.08.
GGCCGAGCUCAACACAGUGUGGCAAAGUGGCUGUGGCUAGACUGCC [A4C C18U] gave a self-cleavage of 0.05.
